We go through 1 molecule from CN108822212A (UNIV BEIJING, dated 2018).

Broadly, the Kd is the free concentration of one partner at which half of the binding sites on the other are occupied at equilibrium, for simple one-to-one binding. Higher therefore signals lower affinity.

Experiment [1] concerns the target 全长KIT ITD (Ba/F3稳定细胞系表面) (human) (UniProt P10721). The experiment can be described thus: cell-based or functional assay.
Experiment [2] addresses 全长KIT WT (Ba/F3稳定细胞系表面) (human) (UniProt P10721). The experiment can be described thus: cell-based or functional assay.
For the next experiment, the target named is T1, KIT WT D4-5蛋白 (human, UniProt P10721 309-519, limits assumed).
T1 construct: domain: 第4、5个Ig结构域 (D4-5); Expressed in HEK293 cells by BacMam; also called KIT WT的第4、5个结构域
As to the kind of experiment: SPR, Biacore T200, 3G2 amine-coupled on CM5, KIT WT D4-5 as analyte (3.125-100 nM). A general note: SPR reads the build-up and loss of mass on a sensor chip optically.

The target in a further experiment is T2, KIT ITD D4-5蛋白 (human, UniProt P10721 309-519).
T2 chain: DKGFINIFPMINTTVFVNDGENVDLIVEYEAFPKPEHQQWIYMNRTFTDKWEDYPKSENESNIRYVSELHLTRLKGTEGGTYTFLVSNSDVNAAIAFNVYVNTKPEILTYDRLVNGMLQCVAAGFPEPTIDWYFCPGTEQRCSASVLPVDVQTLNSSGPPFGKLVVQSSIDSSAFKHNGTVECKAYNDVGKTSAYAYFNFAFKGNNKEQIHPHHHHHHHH
The experiment can be described thus: SPR, Biacore T200, 3G2 amine-coupled on CM5, KIT ITD D4-5 as analyte (3.125-100 nM).

B1: 单克隆抗体3G2 (antibody, V domains shown)
VH: EVQLQESGPGLVKPSQSLSLTCTVAGYSITSDYAWNWIRQFPGNRLEWVGYISYSGSTSYNPSLKSRISITRDTSQNQFFLQLNSVTTEDTATYYCTRWRYRYTLAMDYWGQGTSVTVSS
VL: DIVLTQSPAITAASLGQKVTITCSASSSISYIHWYQQKSGTSPKPWIYEIYKLASGVPPRFSGSGSGTSYSLTISSMEAEDAAIYYCQQWNYPFTFGSGTKLEIKR
notes: also called 3G2抗体; not shown: hinge and Fc of the mouse hybridoma antibody
With B1, in experiment [1], the IC50 of cell survival (CCK8) of KIT ITD Ba/F3 cells came to 1.29 nM, the percent of KIT ITD Ba/F3 cells in early apoptosis at 10 nM 3G2 stood at 41%, the percent of KIT ITD Ba/F3 cells in late apoptosis at 10 nM 3G2 stood at 14.5% and the percent of KIT ITD Ba/F3 cells in programmed apoptosis at 10 nM 3G2 (Annexin V-FITC/7-AAD) was 55.5%. The percent apoptosis of KIT WT Ba/F3 cells with 3G2 in experiment [2] came to 10.9%. The molecule also gave a Kd with KIT WT D4-5蛋白 of 154 nM. This molecule returned a dissociation constant Kd with KIT ITD D4-5蛋白 of 17.1 nM.
